Substitutions are numbered along the chain they refer to.
Assays:
Test in all cases: binding, other
CLDN6 peptide on HLA [1] = biological target: T1, CLDN6 peptide on HLA (human)
T1 peptide: TLIPVCWTA

CLDN6 peptide on HLA [2] = biological target: T2, CLDN6 peptide on HLA (human)
T2 peptide: VLTSGIVFV

CT45A1 peptide on HLA [3] = biological target: T3, CT45A1 peptide on HLA (human)
T3 peptide: SLIAGSAMSKA

CT45A1 peptide on HLA [4] = biological target: T4, CT45A1 peptide on HLA (human)
T4 peptide: KLVKELRCV

CT45A1 peptide on HLA [5] = biological target: T5, CT45A1 peptide on HLA (human)
T5 peptide: KIFEMLEGV

DCAF4L2 peptide on HLA = biological target: T6, DCAF4L2 peptide on HLA (human)
T6 peptide: ILQDGQFLV

HOXB13 peptide on HLA [6] = biological target: T7, HOXB13 peptide on HLA (human)
T7 peptide: SLSERQITI

HOXB13 peptide on HLA [7] = biological target: T8, HOXB13 peptide on HLA (human)
T8 peptide: YLDVSVVQT

B1: TCR of SEQ ID NOs 331 and 332 (TCR, V domains shown)
Valpha: KQEVTQIPAALSVPEGENLVLNCSFTDSAIYNLQWFRQDPGKGLTSLLLIQSSQREQTSGRLNASLDKSSGRSTLYIAASQPGDSATYLCAAKAAGNKLTFGGGTRVLVKP
Vbeta: NAGVTQTPKFQVLKTGQSMTLQCAQDMNHNSMYWYRQDPGMGLRLIYYSASEGTTDKGEVPNGYNVSRLNKREFSLRLESAAPSQTSVYFCASSESLGVTGTAFFGQGTRLTVV
B1: recognises (CLDN6 peptide on HLA [1]).

B2: TCR of SEQ ID NOs 333 and 334 (TCR, V domains shown)
Valpha: KQEVTQIPAALSVPEGENLVLNCSFTDSAIYNLQWFRQDPGKGLTSLLLIQSSQREQTSGRLNASLDKSSGRSTLYIAASQPGDSATYLCAVKKDAGNKLTFGGGTRVLVKP
Vbeta: B1 Vbeta with S75P, E79L, E95R, S96R, V99A, T100S, G101S, T102E
B2: recognises (CLDN6 peptide on HLA [1]).

B3: TCR of SEQ ID NOs 335 and 336 (TCR, V domains shown)
Valpha: KQEVTQIPAALSVPEGENLVLNCSFTDSAIYNLQWFRQDPGKGLTSLLLIQSSQREQTSGRLNASLDKSSGRSTLYIAASQPGDSATYLCAVRHLSNDYKLSFGAGTTVTVRA
Vbeta: NAGVTQTPKFQVLKTGQSMTLQCAQDMNHEYMSWYRQDPGMGLRLIHYSVGAGITDQGEVPNGYNVSRSTTEDFPLRLLSAAPSQTSVYFCASKRGFDEGSPLHFGNGTRLTVT
B3: recognises (CLDN6 peptide on HLA [2]).

B4: TCR of SEQ ID NOs 337 and 338 (TCR, V domains shown)
Valpha: B2 Valpha with K93R, K94H, D95N, A96Q, N98G, T101I, G104Q, R107E, V108L, L109S
Vbeta: NAGVTQTPKFRVLKTGQSMTLLCAQDMNHEYMYWYRQDPGMGLRLIHYSVGAGITDQGEVPNGYNVSRLNKREFSLRLESAAPSQTSVYFCASSDRGVYEQYFGPGTRLTVT
B4: recognises (CLDN6 peptide on HLA [2]).

B5: TCR of SEQ ID NOs 339 and 340 (TCR, V domains shown)
Valpha: KQEVTQIPAALSVPEGENLVLNCSFTDSAIYNLQWFRQDPGKGLTSLLLIQSSQREQTSGRLNASLDKSSGRSTLYIAASQPGDSATYLCAVRPLGGGYQKVTFGTGTKLQVIP
Vbeta: NAGVTQTPKFRVLKTGQSMTLQCAQDMNHNSMYWYRQDPGMGLRLIYYSASEGTTDKGEVPNGYNVSRLNKREFSLRLESAAPSQTSVYFCASSDTGTSVTGELFFGEGSRLTVL
B5: recognises (CLDN6 peptide on HLA [2]).

B6: TCR of SEQ ID NOs 341 and 342 (TCR, V domains shown)
Valpha: QKEVEQNSGPLSVPEGAIASLNCTYSDRGSQSFFWYRQYSGKSPELIMFIYSNGDKEDGRFTAQLNKASQYVSLLIRDSQPSDSATYLCAVGTSYDKVIFGPGTSLSVIP
Vbeta: NAGVTQTPKFQVLKTGQSMTLQCAQDMNHEYMSWYRQDPGMGLRLIHYSVGAGITDQGEVPNGYNVSRSTTEDFPLRLLSAAPSQTSVYFCASSYGGGSGYTFGSGTRLTVV
B6: recognises (CT45A1 peptide on HLA [3]).

B7: TCR of SEQ ID NOs 343 and 344 (TCR, V domains shown)
Valpha: QKEVEQNSGPLSVPEGAIASLNCTYSDRGSQSFFWYRQYSGKSPELIMFIYSNGDKEDGRFTAQLNKASQYVSLLIRDSQPSDSATYLCAVGGAGGYQKVTFGTGTKLQVIP
Vbeta: NAGVTQTPKFQVLKTGQSMTLQCAQDMNHEYMSWYRQDPGMGLRLIHYSVGAGITDQGEVPNGYNVSRSTTEDFPLRLLSAAPSQTSVYFCASSYSGNEQYFGPGTRLTVT
B7: recognises (CT45A1 peptide on HLA [3]).

B8: TCR of SEQ ID NOs 345 and 346 (TCR, V domains shown)
Valpha: KQEVTQIPAALSVPEGENLVLNCSFTDSAIYNLQWFRQDPGKGLTSLLLIQSSQREQTSGRLNASLDKSSGRSTLYIAASQPGDSATYLCAVRGYQKVTFGTGTKLQVIP
Vbeta: B1 Vbeta with S96A, L97S, V99L, T100R, G101S, T102P, A103L, F104H, Q107N, V114T
B8: recognises (CT45A1 peptide on HLA [3]).

B9: TCR of SEQ ID NOs 347 and 348 (TCR, V domains shown)
Valpha: KQEVTQIPAALSVPEGENLVLNCSFTDSAIYNLQWFRQDPGKGLTSLLLIQSSQREQTSGRLNASLDKSSGRSTLYIAASQPGDSATYLCAVRTTDSWGKLQFGAGTPVVVTP
Vbeta: NAGVTQTPKFQVLKIGQSMTLQCTQDMNHNYMYWYRQDPGMGLKLIYYSVGAGITDKGEVPNGYNVSRSTTEDFPLRLELAAPSQTSVYFCASSSPLGKQYFGPGTRLTVL
B9: recognises (CT45A1 peptide on HLA [4]).

B10: TCR of SEQ ID NOs 349 and 350 (TCR, V domains shown)
Valpha: B8 Valpha with R93T, G94N, Y95A, Q96G, V98S, T102D, K105T, Q107T, I109K
Vbeta: NAGVTQTPKFQVLKTGQSMTLQCAQDMNHEYMSWYRQDPGMGLRLIHYSVGAGITDQGEVPNGYNVSRSTTEDFPLRLESAAPSQTSVYFCASSEVPGPYGYTFGSGTRLTVV
B10: recognises (CT45A1 peptide on HLA [4]).

B11: TCR of SEQ ID NOs 351 and 352 (TCR, V domains shown)
Valpha: KQEVTQIPVALSVPEGENLVLNCSFTDSAIYNLQWFRQDPGKGLTSLLLIQSSQREQTSGRLNASLDKSSGRSTLYIAASQPGDSATYLCALRGEADSWGKLQFGAGTQVVVTP
Vbeta: B9 Vbeta with I15T, T24A, K99E, L111T
B11: recognises (CT45A1 peptide on HLA [4]).

B12: TCR of SEQ ID NOs 353 and 354 (TCR, V domains shown)
Valpha: QKEVEQNSGPLSVPEGAIASLNCTYSDRGSQSFFWYRQYSGKSPELIMSIYSNGDKEDGRFTAQLNKASQYVSLLIRDSQPSDSATYLCAVNYRGALTFGSGTRLQVQP
Vbeta: NAGVTQTPKFRILKIGQSMTLQCTQDMNHNYMYWYRQDPGMGLKLIYYSVGAGITDQGEVPNGYNVSRSTTEDFPLRLLSAAPSQTSVYFCASSYLRTGGNYGYTFGSGTRLTVV
B12: recognises (CT45A1 peptide on HLA [5]).

B13: TCR of SEQ ID NOs 355 and 356 (TCR, V domains shown)
Valpha: B11 Valpha with V9A, L92V, R93W, G94R, E95T, A96T
Vbeta: NAGVTQTPKFRILKIGQSMTLQCTQDMNHNYMYWYRQDPGMGLKLIYYSVGAGITDKGEVPNGYNVSRSTTEDFPLRLLSAAPSQTSVYFCASSYGQGYGYTFGSGTRLTVV
B13: recognises (CT45A1 peptide on HLA [5]).

B14: TCR of SEQ ID NOs 357 and 358 (TCR, V domains shown)
Valpha: KQEVTQIPAALSVPEGENLVLNCSFTDSAIYNLQWFRQDPGKGLTSLLLIQSSQREQTSGRLNASLDKSSGRSTLYIAASQPGDSATYLCAVKVWSNTGKLIFGQGTTLQVKP
Vbeta: NAGVTQTPKFRILKIGQSMTLQCTQDMNHNYMYWYRQDPGMGLKLIYYSVGAGITDKGEVPNGYNVSRSTTEDFPLRLELAAPSQTSVYFCASSYEGDISYGYTFGFGTRLTVV
B14: recognises (CT45A1 peptide on HLA [5]).

B15: TCR of SEQ ID NOs 359 and 360 (TCR, V domains shown)
Valpha: KQEVTQIPAALSVPEGENLVLNCSFTDSAIYNLQWFRQDPGKGLTSLLLIQSSQREQTSGRLNASLDKSSGRSTLYIAASQPGDSATYLCAVRPTRGDSWGKLQFGAGTQVVVTP
Vbeta: NAGVTQTPKFQVLKTGQSMTLQCAQDMNHNSMYWYRQDPGMGLRLIYYSASEGTTDKGEVPNGYNVSRLNKREFSLRLESAAPSQTSVYFCASSYSLLGNEAFFGQGTRLTVV
B15: recognises (DCAF4L2 peptide on HLA).

B16: TCR of SEQ ID NOs 361 and 362 (TCR, V domains shown)
Valpha: KQEVTQIPAALSVPEGENLVLNCSFTDSAIYNLQWFRQDPGKGLTSLLLIQSSQREQTSGRLNASLDKSSGRSTLYIAASQPGDSATYLCAVDTGRRALTFGSGTRLQVQP
Vbeta: NAGVTQTPKFQVLKTGQSMTLQCAQDMNHEYMYWYRQDPGMGLRLIHYSVGEGTTAKGEVPDGYNVSRLKKQNFLLGLESAAPSQTSVYFCASRDQINEKLFFGSGTQLSVL
B16: recognises (DCAF4L2 peptide on HLA).

B17: TCR of SEQ ID NOs 363 and 364 (TCR, V domains shown)
Valpha: B16 Valpha with D93N, T94L, R96A, R97Q, A98K, T100V, S103Q, Q108T, V109I, Q110N
Vbeta: NAGVTQTPKFRILKIGQSMTLQCTQDMNHNYMYWYRQDPGMGLKLIYYSVGAGITDKGEVPNGYNVSRSTTEDFPLRLELAAPSQTSVYFCASSSFDRDEAFFGQGTKLTVV
B17: recognises (DCAF4L2 peptide on HLA).

B18: TCR of SEQ ID NOs 365 and 366 (TCR, V domains shown)
Valpha: B8 Valpha with R93G, Q96N, V98L, T99I, T102A, K105R, Q107A, I109H
Vbeta: NAGVTQTPKFQVLKTGQSMTLQCAQDMNHNSMYWYRQDPGMGLRLIYYSASEGTTDKGEVPNGYNVSRSTTEDFPLRLLSAAPSQTSVYFCASSYQGTGELFFGEGSRLTVL
B18: recognises (HOXB13 peptide on HLA [6]).

B19: TCR of SEQ ID NOs 367 and 368 (TCR, V domains shown)
Valpha: KQEVTQIPAALSVPEGENLVLNCSFTDSAIYNLQWFRQDPGKGLTSLLLIQSSQREQTSGRLNASLDKSSGRSTLYIAASQPGDSATYLCAVRPHGQNFVFGPGTRLSVLP
Vbeta: NAGVTQTPKFRVLKTGQSMTLLCAQDMNHEYMYWYRQDPGMGLRLIHYSVGEGTTDKGEVPNGYNVSRLNKREFSLRLESAAPSQTSVYFCASSSLARETQYFGPGTRLLVL
B19: recognises (HOXB13 peptide on HLA [6]).

B20: TCR of SEQ ID NOs 369 and 370 (TCR, V domains shown)
Valpha: B8 Valpha with R93G
Vbeta: NAGVTQTPKFQVLKTGQSMTLQCAQDMNHNSMYWYRQDPGMGLRLIYYSASEGTTDKGEVPNGYNVSRSTTEDFPLRLLSAAPSQTSVYFCASSYQGGNEKLFFGSGTQLSVL
B20: recognises (HOXB13 peptide on HLA [6]).

B21: TCR of SEQ ID NOs 371 and 372 (TCR, V domains shown)
Valpha: KQEVTQIPAALSVPEGENLVLNCSFTDSAIYNLQWFRQDPGKGLTSLLLIQSSQREQTSGRLNASLDKSSGRSTLYIAASQPGDSATYLCAVRHDYQLSFGAGTTVTVRA
Vbeta: B6 Vbeta with Y95R, G96I, G98Q, S99R, G100A, Y101S, T102F
B21: recognises (HOXB13 peptide on HLA [7]).

B22: TCR of SEQ ID NOs 373 and 374 (TCR, V domains shown)
Valpha: KQEVTQIPAALSVPEGENLVLNCSFTDSAIYNLQWFRQDPGKGLTSLLLIQSSQREQTSGRLNASLDKSSGRSTLYIAASQPGDSATYLCAANDPMDSSYKLIFGSGTRLLVRP
Vbeta: NAGVTQTPKFRVLKTGQSMTLLCAQDMNHEYMYWYRQDPGMGLRLIHYSVGEGTTAKGEVPDGYNVSRLKKQNFLLGLESAAPSQTSVYFCASSPLDGWNYGYTFGSGTRLTVV
B22: recognises (HOXB13 peptide on HLA [7]).

— US20230346885A1 (published 2023)
